Results on seven molecules are retold here after publication doi:10.1101/2025.09.18.675241 (bioRxiv, 2025).

Broadly, the Kd is the free concentration of one partner at which half of the binding sites on the other are occupied at equilibrium, for simple one-to-one binding. Read a low Kd as higher affinity. A word on the stoichiometry N: it is the number of molecules, sites or subunits per partner or assembly.

The target of one data set is FAM171A2 Ecto-AP (human) (UniProt A8MVW0). The data set is described as follows: ELISA. For orientation: In an ELISA, binding on a coated surface is turned into a signal by an enzyme label.
Data set [1] addresses FAM171A2 ectodomain (K30-T315), Fc cleaved off (human) (UniProt A8MVW0). The data set is described as follows: AUC.
Data set [2] shares this target. The data set is described as follows: SEC-MALS. In general terms: In gel filtration, larger molecules generally elute earlier.
Data set [3] has the same target. The data set is described as follows: SEC-SAXS.
Data set [4] concerns the molecule itself. The data set is described as follows: AUC.
The data set “SEC-MALS” concerns the molecule itself. The data set is described as follows: SEC-MALS.
Data set [5] deals with the molecule itself. The data set is described as follows: AUC. The source holds these as a separate data set.
The data set “SEC” deals with the molecule itself. The data set is described as follows: SEC.
Another data set concerns the target T1, FAM171A1 Ecto-AP (human, UniProt Q5VUB5 23-303).
T1 sequence: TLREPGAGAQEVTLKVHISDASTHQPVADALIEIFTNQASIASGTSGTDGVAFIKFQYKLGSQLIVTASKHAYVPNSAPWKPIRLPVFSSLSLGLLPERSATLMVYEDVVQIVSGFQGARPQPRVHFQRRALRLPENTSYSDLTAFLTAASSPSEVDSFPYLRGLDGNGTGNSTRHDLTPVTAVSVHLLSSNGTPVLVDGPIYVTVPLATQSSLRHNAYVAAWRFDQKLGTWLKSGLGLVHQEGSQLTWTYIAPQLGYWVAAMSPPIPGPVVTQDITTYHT
The data set is described as follows: ELISA.

Changes are numbered by the printed parent chain. Names and notes keep the numbering of the source.

In the data set with FAM171A2 Ecto-AP (human), “FAM171A2 Ecto-Fc (from UniProt A8MVW0 30-315) (Fc fusion)” gave a Kd of 0.389 µM.

For “FAM171A2 ectodomain (K30-T315), Fc cleaved off (from UniProt A8MVW0 30-315) (domain or fragment)”, the percent of the mixture as trimer in data set [1] amounted to 75%. For the same molecule, the stoichiometry N in data set [1], in data set [2] and in [3] was 3 in each case.

B1: FAM171A1 ectodomain (T23-T303), Fc cleaved off (domain or fragment)
chain: T1 sequence
modifications: four N-linked glycosylation sites occupied by Man5GlcNAc2 (from HEK293S GnTI- cells)
With B1, the “stoichiometry N” value in “AUC [4]” amounted to 2.7 monomers; in the data set “SEC-MALS”, 3; in the data set “AUC [5]” it was 2.6 monomers.

B2: FAM171A1 ectodomain L255N (domain or fragment)
chain: T1 sequence with L233N
modifications: introduced N-linked glycosylation site
Regarding B2, in the data set “SEC”, the “stoichiometry N” value worked out at 3.

B3: FAM171A1 Ecto-Fc (Fc fusion)
chain: T1 sequence
B3 came in with a Kd with FAM171A1 Ecto-AP of 0.009 ± 0.002 µM.

B4: FAM171A1 ectodomain Y241S/L255N (domain or fragment)
chain: T1 sequence with Y219S, L233N
modifications: two introduced N-linked glycosylation sites
In the case of B4, the “stoichiometry N” value in “SEC” came out at 3.

B5: FAM171A1 ectodomain Y241S (domain or fragment)
chain: T1 sequence with Y219S
modifications: introduced N-linked glycosylation site
For B5, the “stoichiometry N” value in the data set “SEC” was 3.
